IntAct's records for PubMed 23929946

B1: Protein BRASSINOSTEROID … 1 (Arabidopsis thaliana (Mouse-ear cress)), O22476 (parent)
chain: MKTFSSFFLSVTTLFFFSFFSLSFQASPSQSLYREIHQLISFKDVLPDKNLLPDWSSNKNPCTFDGVTCRDDKVTSIDLSSKPLNVGFSAVSSSLLSLTGLESLFLSNSHINGSVSGFKCSASLTSLDLSRNSLSGPVTTLTSLGSCSGLKFLNVSSNTLDFPGKVSGGLKLNSLEVLDLSANSISGANVVGWVLSDGCGELKHLAISGNKISGDVDVSRCVNLEFLDVSSNNFSTGIPFLGDCSALQHLDISGNKLSGDFSRAISTCTELKLLNISSNQFVGPIPPLPLKSLQYLSLAENKFTGEIPDFLSGACDTLTGLDLSGNHFYGAVPPFFGSCSLLESLALSSNNFSGELPMDTLLKMRGLKVLDLSFNEFSGELPESLTNLSASLLTLDLSSNNFSGPILPNLCQNPKNTLQELYLQNNGFTGKIPPTLSNCSELVSLHLSFNYLSGTIPSSLGSLSKLRDLKLWLNMLEGEIPQELMYVKTLETLILDFNDLTGEIPSGLSNCTNLNWISLSNNRLTGEIPKWIGRLENLAILKLSNNSFSGNIPAELGDCRSLIWLDLNTNLFNGTIPAAMFKQSGKIAANFIAGKRYVYIKNDGMKKECHGAGNLLEFQGIRSEQLNRLSTRNPCNITSRVYGGHTSPTFDNNGSMMFLDMSYNMLSGYIPKEIGSMPYLFILNLGHNDISGSIPDEVGDLRGLNILDLSSNKLDGRIPQAMSALTMLTEIDLSNNNLSGPIPEMGQFETFPPAKFLNNPGLCGYPLPRCDPSNADGYAHHQRSHGRRPASLAGSVAMGLLFSFVCIFGLILVGREMRKRRRKKEAELEMYAEGHGNSGDRTANNTNWKLTGVKEALSINLAAFEKPLRKLTFADLLQATNGFHNDSLIGSGGFGDVYKAILKDGSAVAIKKLIHVSGQGDREFMAEMETIGKIKHRNLVPLLGYCKVGDERLLVYEFMKYGSLEDVLHDPKKAGVKLNWSTRRKIAIGSARGLAFLHHNCSPHIIHRDMKSSNVLLDENLEARVSDFGMARLMSAMDTHLSVSTLAGTPGYVPPEYYQSFRCSTKGDVYSYGVVLLELLTGKRPTDSPDFGDNNLVGWVKQHAKLRISDVFDPELMKEDPALEIELLQHLKVAVACLDDRAWRRPTMVQVMAMFKEIQAGSGIDSQSTIRSIEDGGFSTIEMVDMSIKEVPEGKL
partner: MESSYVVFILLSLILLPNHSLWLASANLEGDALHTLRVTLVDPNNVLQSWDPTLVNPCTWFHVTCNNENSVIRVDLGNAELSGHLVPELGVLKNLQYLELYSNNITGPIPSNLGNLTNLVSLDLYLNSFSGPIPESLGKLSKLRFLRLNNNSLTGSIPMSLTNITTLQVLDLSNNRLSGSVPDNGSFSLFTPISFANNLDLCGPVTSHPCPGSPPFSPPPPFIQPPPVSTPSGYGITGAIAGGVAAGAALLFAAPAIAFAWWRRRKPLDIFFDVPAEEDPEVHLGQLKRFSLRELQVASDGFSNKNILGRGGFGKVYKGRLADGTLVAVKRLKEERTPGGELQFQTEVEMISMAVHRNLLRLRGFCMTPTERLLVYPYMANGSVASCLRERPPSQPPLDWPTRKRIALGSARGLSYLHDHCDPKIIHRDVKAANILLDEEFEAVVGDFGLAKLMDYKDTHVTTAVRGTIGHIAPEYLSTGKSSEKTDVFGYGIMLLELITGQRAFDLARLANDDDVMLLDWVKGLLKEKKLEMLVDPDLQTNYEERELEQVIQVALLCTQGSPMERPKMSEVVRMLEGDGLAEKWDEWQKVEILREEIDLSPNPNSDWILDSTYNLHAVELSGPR

Variants of: B1
Conditions: with serk1_arath SERK1, Q94AG2

effect of a mutation on the interaction | Variant
disrupting interaction strength | T750I
